Earlier results on three substances are cited in article PMC11045845 (Nature Communications, 2024).

No end group written: not given here.

For series [1] the following is noted: literature values for comparison. How it is done: Upon increasing the lipid concentration, the intensity at the emission maximum increased and the position of the maximum was blue-shifted to lower wavelengths. A maximum blue shift of (18 ± 2) nm in the presence of 2 mM POPC was determined (Fig. 2a, blue curve, Fig. 2b), accompanied by an increase in the maximum fluorescence intensity (Fig. 2a, c). The observed blue shift indicates the partitioning of the L-trypt ...

For series [2] the following is noted: glycerylmonooleate BLMs. From the text: For further support, single-channel proton conductance measurements would be desirable but cannot be performed at physiological conditions owing to orders of magnitudes too small proton concentrations.

Regarding “cecropin A (KWKLFKKIEKVGQNIRDGIIKAGPAVAVVGQATQIAK; ends and bridges not checked; UniProt P01507 27-63, looked up) [antimicrobial peptide]”, the blue shift in series [1] is listed as 15 nm.

On to gramicidin A, for which the “single-channel conductance GK+” value in series [2] is reported as “≈ 29 pS”.

melittin: in series [1], the blue shift entry was “around 20 nm”.
